Experimental data: patent publication US10064929B2, “Peptides and combination of peptides for use in immunotherapy against breast cancer and other cancers” (immatics biotechnologies GmbH, priority 2015, dated 2018)
Square brackets hold non-standard residues; d marks the D form. Ends that are not written are not given here. pT = C[C@@H](OP(=O)(O)O)[C@H](N)C(=O)O

Target: HLA-A*02:01 (Homo sapiens, UniProt P04439, D140Y/D185E/D98H/E176V/E277Q/G131W/G231S/I119V/I121R/I166T/I218V/L300P/L318F/N151K/N90K/P208A/P217A/Q86G/Q94H/R138H/R169H/T345S)
Assay: MHC binding assay: UV-ligand exchange with β2m ELISA
Settings: binding to HLA-A*02:01
Text: Candidate peptides for T cell based therapies according to the present invention were further tested for their MHC binding capacity (affinity). The individual peptide-MHC complexes were produced by UV-ligand exchange, where a UV-sensitive peptide is cleaved upon UV-irradiation, and exchanged with the peptide of interest as analyzed. Only peptide candidates that can effectively bind and stabilize the peptide-receptive MHC molecules prevent dissociation of the MHC complexes. To determine the yield of the exchange reaction, an ELISA was performed based on the detection of the light chain (β2m) of stabilized MHC complexes. The assay was performed as generally described in Rodenko et al. (Rodenko et al., 2006).
96 well MAXISorp plates (NUNC) were coated over night with 2 ug/ml streptavidin in PBS at room temperature, washed 4× and blocked for 1 h at 37° C. in 2% BSA containing blocking buffer. Refolded HLA-A*02:01/MLA-001 monomers served as standards, covering the range of 15-500 ng/ml. Peptide-MHC monomers of the UV-exchange reaction were diluted 100-fold in blocking buffer. Samples were incubated for 1 h at 37° C., washed four times, incubated with 2 ug/ml HRP conjugated anti-β2m for 1 h at 37° C., washed again and detected with TMB solution that is stopped with […]. Absorption was measured at 450 nm. Candidate peptides that show a high exchange yield (preferably higher than 50%, most preferred higher than 75%) are generally preferred for a generation and production of antibodies or fragments thereof, and/or T cell receptors or fragments thereof, as they show sufficient avidity to the MHC molecules and prevent dissociation of the MHC complexes.

Row | Sequence | Peptide Exchange (MHC class I binding score, peptide exchange yield)
1 | LLMUVAGLKL (LLM[pT]VAGLKL; listed as Homo sapiens) [SEQ ID NO: 38, U = phospho-threonine] | “++++” (≥75% = ++++)
2 | SLNDQGYLL (listed as Homo sapiens) [SEQ ID NO: 41] | “+++” (≥50 = +++)
3 | GLLPTSVSPRV (listed as Homo sapiens) [SEQ ID NO: 11] | “++” (≥20% = ++)
4 | FMSKLVPAI (listed as Homo sapiens) [SEQ ID NO: 9] | “+++” (≥50 = +++)
5 | SLAEPRVSV (listed as Homo sapiens) [SEQ ID NO: 27] | “+++” (≥50 = +++)
6 | SMMGLLTNL (listed as Homo sapiens) [SEQ ID NO: 16] | “++++” (≥75% = ++++)
7 | KQLELELEV (listed as Homo sapiens) [SEQ ID NO: 14] | “+++” (≥50 = +++)
8 | FIIPTVATA (listed as Homo sapiens) [SEQ ID NO: 7] | “++++” (≥75% = ++++)
9 | GLSYIYNTV (listed as Homo sapiens) [SEQ ID NO: 31] | “++” (≥20% = ++)
10 | ALNPVIYTV (listed as Homo sapiens) [SEQ ID NO: 5] | “++” (≥20% = ++)
11 | FLSSEAANV (listed as Homo sapiens) [SEQ ID NO: 30] | “++” (≥20% = ++)
12 | ALTALQNYL (listed as Homo sapiens) [SEQ ID NO: 6] | “+++” (≥50 = +++)
13 | SLVEGEAVHLA (listed as Homo sapiens) [SEQ ID NO: 4] | “++” (≥20% = ++)
14 | FLDEEVKLI (listed as Homo sapiens) [SEQ ID NO: 43] | “+++” (≥50 = +++)
15 | SLFSVPFFL (listed as Homo sapiens) [SEQ ID NO: 28] | “++++” (≥75% = ++++)
16 | ILFDVVVFL (listed as Homo sapiens) [SEQ ID NO: 25] | “++” (≥20% = ++)
17 | TIASSIEKA (listed as Homo sapiens) [SEQ ID NO: 17] | “++” (≥20% = ++)

Row | Sequence | Peptide Exchange (MHC class I binding score, peptide exchange yield)
18 | KAFPFYNTV (listed as Homo sapiens) [SEQ ID NO: 12] | “++” (≥20% = ++)
19 | ALEEQLHQV (listed as Homo sapiens) [SEQ ID NO: 19] | “++” (≥20% = ++)
20 | ALEAUQLYL (ALEA[pT]QLYL; listed as Homo sapiens) [SEQ ID NO: 29, U = phospho-threonine] | “+++” (≥50 = +++)
21 | KLLDMELEM (listed as Homo sapiens) [SEQ ID NO: 39] | “++++” (≥75% = ++++)
22 | SLAWDVPAA (listed as Homo sapiens) [SEQ ID NO: 26] | “+++” (≥50 = +++)
23 | KLYEGIPVL (listed as Homo sapiens) [SEQ ID NO: 13] | “++” (≥20% = ++)
24 | GLVATLQSL (listed as Homo sapiens) [SEQ ID NO: 32] | “+++” (≥50 = +++)
25 | SLLSEIQAL (listed as Homo sapiens) [SEQ ID NO: 35] | “++++” (≥75% = ++++)
26 | TLLGLAVNV (listed as Homo sapiens) [SEQ ID NO: 36] | “++++” (≥75% = ++++)
27 | FSFPVSVGV (listed as Homo sapiens) [SEQ ID NO: 20] | “+++” (≥50 = +++)
28 | FLVEHVLTL (listed as Homo sapiens) [SEQ ID NO: 42] | “++++” (≥75% = ++++)
29 | GLVQSLTSI (listed as Homo sapiens) [SEQ ID NO: 8] | “++++” (≥75% = ++++)
30 | GLHSLPPEV (listed as Homo sapiens) [SEQ ID NO: 10] | “+++” (≥50 = +++)
31 | YILLQSPQL (listed as Homo sapiens) [SEQ ID NO: 18] | “+++” (≥50 = +++)
32 | ILTELPPGV (listed as Homo sapiens) [SEQ ID NO: 33] | “++” (≥20% = ++)
33 | SLFPSLVVV (listed as Homo sapiens) [SEQ ID NO: 15] | “+++” (≥50 = +++)
